Among the targets are CaMKIV(h) (human) (UniProt Q16566); CaMKIδ(h) (human) (UniProt Q8IU85); DAPK2(h) (human) (UniProt Q9UIK4); EGFR(h) (human) (UniProt P00533); EphB2(h) (human) (UniProt P29323); FGFR4(h) (human) (UniProt P22455); GSK3β(h) (human) (UniProt P49841); KDR(h) (human) (UniProt P35968); Lyn(h) (human) (UniProt P07948); MAPK2(h) (human) (UniProt P28482); MAPKAP-K3(h) (human) (UniProt Q16644); Met(M1268T)(h) (human) (UniProt P08581); Met(Y1248C)(h) (human) (UniProt P08581); PASK(h) (human) (UniProt Q96RG2); PDGFRβ(h) (human) (UniProt P09619); PKCα(h) (human) (UniProt P17252); PKCβII(h) (human) (UniProt P05771); Pim-3(h) (human) (UniProt Q86V86); Pyk2(h) (human) (UniProt Q14289); ROCK-I(h) (human) (UniProt Q13464).

Common to all, as to experiment: cell-based or functional assay
The target of a further assay is T1, EphA3(h) (human) (UniProt P29320).
T1 sequence (looked up): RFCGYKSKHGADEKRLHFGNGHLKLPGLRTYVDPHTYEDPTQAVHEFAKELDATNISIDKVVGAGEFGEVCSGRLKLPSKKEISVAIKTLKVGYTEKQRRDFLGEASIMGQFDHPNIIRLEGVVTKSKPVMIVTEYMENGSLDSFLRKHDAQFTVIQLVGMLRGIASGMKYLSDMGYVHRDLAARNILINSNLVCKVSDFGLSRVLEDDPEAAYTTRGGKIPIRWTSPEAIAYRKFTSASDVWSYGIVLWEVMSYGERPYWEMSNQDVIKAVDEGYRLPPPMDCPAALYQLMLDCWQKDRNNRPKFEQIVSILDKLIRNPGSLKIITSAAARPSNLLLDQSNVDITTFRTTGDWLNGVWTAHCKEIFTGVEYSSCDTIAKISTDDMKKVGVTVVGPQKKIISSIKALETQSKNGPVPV

In the next assay the target is T2, LKB1(h) (human) (UniProt Q15831).
T2 sequence (looked up): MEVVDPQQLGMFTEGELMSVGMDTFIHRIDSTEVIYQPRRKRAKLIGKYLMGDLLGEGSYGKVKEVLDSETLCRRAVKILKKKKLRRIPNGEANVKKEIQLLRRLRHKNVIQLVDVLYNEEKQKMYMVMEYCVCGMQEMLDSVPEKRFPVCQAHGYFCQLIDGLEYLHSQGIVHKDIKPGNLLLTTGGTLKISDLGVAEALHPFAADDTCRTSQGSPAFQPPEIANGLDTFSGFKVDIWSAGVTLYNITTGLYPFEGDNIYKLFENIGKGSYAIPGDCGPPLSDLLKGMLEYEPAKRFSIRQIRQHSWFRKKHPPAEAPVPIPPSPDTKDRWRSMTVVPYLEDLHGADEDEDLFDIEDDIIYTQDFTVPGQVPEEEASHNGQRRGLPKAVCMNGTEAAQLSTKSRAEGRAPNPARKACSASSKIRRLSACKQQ

A further assay addresses T3, PKD2(h) (human) (UniProt Q9BZL6).
T3 sequence (looked up): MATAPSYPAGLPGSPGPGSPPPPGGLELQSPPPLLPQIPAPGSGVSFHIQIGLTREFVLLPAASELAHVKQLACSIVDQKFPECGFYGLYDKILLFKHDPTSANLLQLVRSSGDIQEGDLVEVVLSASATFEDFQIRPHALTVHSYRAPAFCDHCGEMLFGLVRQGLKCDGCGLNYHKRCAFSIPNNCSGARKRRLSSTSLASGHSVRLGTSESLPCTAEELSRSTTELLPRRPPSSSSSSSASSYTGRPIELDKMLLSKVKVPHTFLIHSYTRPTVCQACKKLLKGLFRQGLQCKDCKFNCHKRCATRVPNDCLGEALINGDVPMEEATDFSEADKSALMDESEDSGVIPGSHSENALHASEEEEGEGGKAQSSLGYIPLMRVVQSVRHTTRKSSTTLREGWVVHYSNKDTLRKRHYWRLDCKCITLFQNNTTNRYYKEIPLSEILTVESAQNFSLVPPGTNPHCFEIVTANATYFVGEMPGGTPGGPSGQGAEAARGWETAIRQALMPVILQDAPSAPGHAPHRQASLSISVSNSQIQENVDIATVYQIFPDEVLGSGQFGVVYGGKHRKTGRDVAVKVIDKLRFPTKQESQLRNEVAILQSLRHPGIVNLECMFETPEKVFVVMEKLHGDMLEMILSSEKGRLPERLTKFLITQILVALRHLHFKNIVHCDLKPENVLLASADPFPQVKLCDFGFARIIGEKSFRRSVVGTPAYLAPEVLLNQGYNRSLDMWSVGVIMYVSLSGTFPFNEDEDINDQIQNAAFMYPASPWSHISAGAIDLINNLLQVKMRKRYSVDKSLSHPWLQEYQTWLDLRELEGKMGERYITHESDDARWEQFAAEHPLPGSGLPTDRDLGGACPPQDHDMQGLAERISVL

Sequence of FGFR4(h) (human) (P22455 442-753 limits assumed): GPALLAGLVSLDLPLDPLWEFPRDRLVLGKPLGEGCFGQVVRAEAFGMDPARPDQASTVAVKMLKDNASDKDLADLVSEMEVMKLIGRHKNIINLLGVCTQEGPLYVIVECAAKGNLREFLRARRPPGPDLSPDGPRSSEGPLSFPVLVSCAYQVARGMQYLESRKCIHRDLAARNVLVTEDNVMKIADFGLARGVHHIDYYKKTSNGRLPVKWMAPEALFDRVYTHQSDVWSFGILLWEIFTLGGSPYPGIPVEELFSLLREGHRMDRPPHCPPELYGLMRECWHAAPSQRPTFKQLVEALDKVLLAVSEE
Sequence of MAPK2(h) (human) (P28482 whole entry): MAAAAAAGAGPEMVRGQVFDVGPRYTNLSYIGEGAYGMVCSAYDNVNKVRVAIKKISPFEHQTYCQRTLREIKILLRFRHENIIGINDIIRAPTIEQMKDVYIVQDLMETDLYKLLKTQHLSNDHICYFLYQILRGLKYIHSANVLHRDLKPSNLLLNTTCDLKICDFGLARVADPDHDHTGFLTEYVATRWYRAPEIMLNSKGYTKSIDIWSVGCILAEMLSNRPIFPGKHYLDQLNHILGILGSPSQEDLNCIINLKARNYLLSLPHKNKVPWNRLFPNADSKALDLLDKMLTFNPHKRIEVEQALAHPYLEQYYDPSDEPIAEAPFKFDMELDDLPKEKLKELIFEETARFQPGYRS
Sequence of EphB2(h) (human) (P29323 565-986 limits assumed): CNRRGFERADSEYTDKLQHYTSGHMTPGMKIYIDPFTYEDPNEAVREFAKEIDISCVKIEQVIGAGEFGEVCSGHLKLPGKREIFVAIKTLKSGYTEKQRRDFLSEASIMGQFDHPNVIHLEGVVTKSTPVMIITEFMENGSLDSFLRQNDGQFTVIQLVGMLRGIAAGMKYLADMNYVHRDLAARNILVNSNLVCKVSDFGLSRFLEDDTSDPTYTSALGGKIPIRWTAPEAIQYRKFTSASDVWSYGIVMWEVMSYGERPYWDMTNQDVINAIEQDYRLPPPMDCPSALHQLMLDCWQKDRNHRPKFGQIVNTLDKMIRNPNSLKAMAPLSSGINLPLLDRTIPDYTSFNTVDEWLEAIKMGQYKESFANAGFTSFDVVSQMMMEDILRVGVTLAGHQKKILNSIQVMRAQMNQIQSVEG
Sequence of PDGFRβ(h) (human) (P09619 557-1106 limits assumed): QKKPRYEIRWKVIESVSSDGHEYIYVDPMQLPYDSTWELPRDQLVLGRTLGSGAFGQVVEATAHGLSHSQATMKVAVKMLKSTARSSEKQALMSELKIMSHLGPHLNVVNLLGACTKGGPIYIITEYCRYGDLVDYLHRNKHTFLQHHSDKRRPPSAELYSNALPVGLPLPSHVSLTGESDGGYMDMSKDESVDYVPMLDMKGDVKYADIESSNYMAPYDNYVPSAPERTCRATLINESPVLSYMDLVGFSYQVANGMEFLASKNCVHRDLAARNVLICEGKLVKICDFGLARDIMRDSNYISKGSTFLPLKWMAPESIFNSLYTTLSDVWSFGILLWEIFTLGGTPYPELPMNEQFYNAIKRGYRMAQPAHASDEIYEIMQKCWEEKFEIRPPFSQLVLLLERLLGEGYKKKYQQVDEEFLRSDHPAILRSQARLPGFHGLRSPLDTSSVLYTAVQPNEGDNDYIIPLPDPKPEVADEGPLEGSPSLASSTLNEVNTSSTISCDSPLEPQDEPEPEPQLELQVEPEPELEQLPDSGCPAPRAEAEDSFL

Regarding MMI-0300 (peptide), the % activity at 100 µM with CaMKIV(h) (human) was determined as 17%; with CaMKIδ(h) (human), 10%; with DAPK2(h) (human), 32%; with EGFR(h) (human), 21%; with EphA3(h) (human) it was 6%; in the assay with EphB2(h) (human) it was 18%. Moreover, the % activity at 100 µM in the assay with FGFR4(h) (human) was found to be 28%; with GSK3β(h) (human) it was 205%; in the assay with KDR(h) (human), 101%; in the assay with LKB1(h) (human), 101%; with Lyn(h) (human), 69%; in the assay with MAPK2(h) (human) it was 98%. For the same substance, the % activity at 100 µM with MAPKAP-K3(h) (human) turned out to be 3%; with Met(M1268T)(h) (human), 255%; in the assay with Met(Y1248C)(h) (human), 84%; with PASK(h) (human), 29%; with PDGFRβ(h) (human), 81%; in the assay with PKCα(h) (human) it was 89%. Further, the % activity at 100 µM with PKCβII(h) (human) stood at 82%; with PKD2(h) (human), 33%; with Pim-3(h) (human), 80%; with Pyk2(h) (human), 47%; in the assay with ROCK-I(h) (human), 79%.
Take MMI-0500 (peptide): the % activity at 100 µM was -1% in the assay with CaMKIV(h) (human); 0% with CaMKIδ(h) (human); 3% with DAPK2(h) (human); -1% in the assay with EGFR(h) (human); 33% with EphA3(h) (human); 70% with EphB2(h) (human). In addition, the % activity at 100 µM with FGFR4(h) (human) turned out to be 3%; with GSK3β(h) (human), 238%; with KDR(h) (human), 15%; in the assay with LKB1(h) (human) it was 51%; with Lyn(h) (human) it was 31%; with MAPK2(h) (human), 60%. Also, the % activity at 100 µM with MAPKAP-K3(h) (human) was found to be 9%; in the assay with Met(M1268T)(h) (human) it was 239%; in the assay with Met(Y1248C)(h) (human), 73%; with PASK(h) (human) it was 9%; with PDGFRβ(h) (human), 40%; with PKCα(h) (human), 3%. Also, the % activity at 100 µM worked out at 3% with PKCβII(h) (human); 10% with PKD2(h) (human); 37% in the assay with Pim-3(h) (human); 46% in the assay with Pyk2(h) (human); 17% with ROCK-I(h) (human).
Take MMI-0400 (peptide): the % activity at 100 µM in the assay with CaMKIV(h) (human) was 18%; in the assay with CaMKIδ(h) (human) it was 17%; in the assay with DAPK2(h) (human), 16%; in the assay with EGFR(h) (human), 16%; with EphA3(h) (human), 12%; with EphB2(h) (human), 22%. Further, the % activity at 100 µM with FGFR4(h) (human) was 19%; with GSK3β(h) (human), 202%; with KDR(h) (human), 94%; with LKB1(h) (human) it was 89%; in the assay with Lyn(h) (human), 3%; in the assay with MAPK2(h) (human) it was 93%. Further, the % activity at 100 µM is 7% with MAPKAP-K3(h) (human); 265% with Met(M1268T)(h) (human); 36% with Met(Y1248C)(h) (human); 28% in the assay with PASK(h) (human); 53% with PDGFRβ(h) (human); 86% with PKCα(h) (human). Further, the % activity at 100 µM with PKCβII(h) (human) is 75%; with PKD2(h) (human), 25%; in the assay with Pim-3(h) (human) it was 80%; with Pyk2(h) (human), 34%; with ROCK-I(h) (human), 73%.

These data come from patent publication US20150064134A1.
